Reference: publication PMC8951703

What was measured:
plasminogen = assay: SPR; plasminogen or fibronectin immobilised on CM5 chips by amine coupling (600 RU); recombinant enolase proteins 0-4000 nM injected at 30 uL/min for 180 s, 20 °C, dissociation 1000 s; 10 mM HEPES, 150 mM NaCl, 3 mM EDTA, 0.05% surfactant P20; Biacore X100
fibronectin = fibronectin (UniProt P02751); assay: as above
[1] = molecular target: Recombinant M. hyorhinis enolase K452L (Mycoplasma hyorhinis (strain HUB-1)) (UniProt P0DXB0)
[2] = molecular target: Recombinant M. hyorhinis enolase K451L (Mycoplasma hyorhinis (strain HUB-1)) (UniProt P0DXB0)
[3] = molecular target: Recombinant M. hyorhinis enolase K451L-K452L (Mycoplasma hyorhinis (strain HUB-1)) (UniProt P0DXB0)

fibronectin, sequence (P02751 32-2477): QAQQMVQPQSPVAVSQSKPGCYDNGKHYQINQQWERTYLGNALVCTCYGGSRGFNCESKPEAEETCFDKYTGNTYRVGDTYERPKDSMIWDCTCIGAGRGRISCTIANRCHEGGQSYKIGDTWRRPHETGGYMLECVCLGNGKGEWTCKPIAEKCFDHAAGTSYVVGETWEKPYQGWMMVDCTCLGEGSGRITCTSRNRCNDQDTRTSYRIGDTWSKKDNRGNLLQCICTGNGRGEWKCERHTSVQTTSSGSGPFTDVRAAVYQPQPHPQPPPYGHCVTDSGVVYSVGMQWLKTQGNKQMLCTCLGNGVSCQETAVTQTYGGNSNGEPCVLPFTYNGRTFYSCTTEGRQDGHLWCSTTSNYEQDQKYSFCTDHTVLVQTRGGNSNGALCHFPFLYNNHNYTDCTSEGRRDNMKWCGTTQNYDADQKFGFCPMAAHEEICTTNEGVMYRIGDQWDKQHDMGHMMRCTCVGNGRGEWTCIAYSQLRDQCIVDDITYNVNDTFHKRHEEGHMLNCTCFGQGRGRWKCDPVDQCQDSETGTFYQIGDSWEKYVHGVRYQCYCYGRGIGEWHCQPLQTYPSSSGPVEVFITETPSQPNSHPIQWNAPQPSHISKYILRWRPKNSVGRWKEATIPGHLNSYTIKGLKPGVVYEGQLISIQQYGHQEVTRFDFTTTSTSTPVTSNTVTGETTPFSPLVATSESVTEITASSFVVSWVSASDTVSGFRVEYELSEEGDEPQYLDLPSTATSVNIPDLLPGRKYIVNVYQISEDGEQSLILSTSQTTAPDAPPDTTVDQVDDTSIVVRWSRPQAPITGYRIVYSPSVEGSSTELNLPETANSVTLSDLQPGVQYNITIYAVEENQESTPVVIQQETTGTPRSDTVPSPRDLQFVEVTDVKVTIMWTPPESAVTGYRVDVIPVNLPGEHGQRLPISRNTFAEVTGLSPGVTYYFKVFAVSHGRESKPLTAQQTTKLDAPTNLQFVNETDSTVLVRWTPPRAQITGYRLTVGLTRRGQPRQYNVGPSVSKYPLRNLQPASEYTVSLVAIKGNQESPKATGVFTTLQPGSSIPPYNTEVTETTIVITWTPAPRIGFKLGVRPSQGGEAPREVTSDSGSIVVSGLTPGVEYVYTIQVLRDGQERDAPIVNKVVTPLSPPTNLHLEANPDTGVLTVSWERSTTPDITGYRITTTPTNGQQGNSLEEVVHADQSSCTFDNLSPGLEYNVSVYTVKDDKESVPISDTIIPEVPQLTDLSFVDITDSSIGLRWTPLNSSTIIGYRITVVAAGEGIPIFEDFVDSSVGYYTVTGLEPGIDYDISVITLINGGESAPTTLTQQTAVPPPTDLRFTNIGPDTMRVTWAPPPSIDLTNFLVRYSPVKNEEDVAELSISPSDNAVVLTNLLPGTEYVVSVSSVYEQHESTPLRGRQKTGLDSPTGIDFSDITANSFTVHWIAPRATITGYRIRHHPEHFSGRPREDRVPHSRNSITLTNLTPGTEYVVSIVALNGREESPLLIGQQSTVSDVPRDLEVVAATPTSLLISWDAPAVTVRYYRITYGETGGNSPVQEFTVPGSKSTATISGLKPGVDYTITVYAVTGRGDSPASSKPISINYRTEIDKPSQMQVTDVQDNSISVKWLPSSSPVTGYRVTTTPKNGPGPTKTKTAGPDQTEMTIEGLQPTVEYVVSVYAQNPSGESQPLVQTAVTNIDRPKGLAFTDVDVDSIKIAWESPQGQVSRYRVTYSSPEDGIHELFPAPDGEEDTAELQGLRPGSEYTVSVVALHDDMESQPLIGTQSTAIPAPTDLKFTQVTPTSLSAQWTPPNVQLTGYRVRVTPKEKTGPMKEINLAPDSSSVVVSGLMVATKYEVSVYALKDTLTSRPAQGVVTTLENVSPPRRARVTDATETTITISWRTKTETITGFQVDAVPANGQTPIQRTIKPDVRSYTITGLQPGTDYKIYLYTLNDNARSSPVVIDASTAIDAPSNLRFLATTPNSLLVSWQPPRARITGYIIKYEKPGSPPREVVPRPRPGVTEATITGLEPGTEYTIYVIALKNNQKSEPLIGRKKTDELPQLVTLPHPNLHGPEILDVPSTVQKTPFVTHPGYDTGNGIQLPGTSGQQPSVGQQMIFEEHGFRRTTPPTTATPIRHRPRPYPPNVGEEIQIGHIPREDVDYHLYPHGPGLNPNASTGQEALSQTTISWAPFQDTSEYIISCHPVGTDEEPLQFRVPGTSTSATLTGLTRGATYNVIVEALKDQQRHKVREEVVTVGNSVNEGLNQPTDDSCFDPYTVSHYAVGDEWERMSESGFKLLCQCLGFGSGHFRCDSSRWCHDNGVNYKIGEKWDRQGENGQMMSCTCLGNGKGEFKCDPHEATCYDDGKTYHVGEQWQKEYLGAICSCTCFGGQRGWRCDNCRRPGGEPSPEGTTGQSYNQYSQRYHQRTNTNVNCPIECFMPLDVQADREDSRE

“Recombinant M. hyorhinis enolase K451L (from UniProt P0DXB0 1-450) (enzyme)” was tested, and the Kd (plasminogen) was 28 nM and the Kd (fibronectin) was 77.9 nM.
“Recombinant M. hyorhinis enolase K451L-K452L (from UniProt P0DXB0 1-450) (enzyme)” was tested, and the Kd (plasminogen) was 59.4 nM and the Kd (fibronectin) was 75.2 nM.
With “Recombinant M. hyorhinis enolase K452L (from UniProt P0DXB0 1-450) (enzyme)” the Kd (plasminogen) was 15.8 nM and the Kd (fibronectin) was 70.5 nM.
With “Recombinant M. hyorhinis enolase, wild-type (from UniProt P0DXB0 1-450) (enzyme; other documents disagree on this pair)” the Kd (fibronectin) was 14.3 nM.
For plasminogen (natural protein), the plasmin activity (OD 405 nm) of plasminogen held in wells coated with the mutant, after tPA, compared with WT rEno-bound plasminogen (printed percent, seemingly the decrease) [1] was 30.5%, the plasmin activity (OD 405 nm) of plasminogen held in wells coated with the mutant, after tPA, compared with WT rEno-bound plasminogen (printed percent, seemingly the decrease) [2] was 39.5% and the plasmin activity (OD 405 nm) of plasminogen held in wells coated with the mutant, after tPA, compared with WT rEno-bound plasminogen (printed percent, seemingly the decrease) [3] was 50.1%.
